A short description of this series: soluble on expression in E. coli; label from the status in PepcDB or PDB records.
Take “ANKNKGFEGVAWDPRRQQLLLGEERPPALYTWKSDGSNVLKGDKQSLLSRALDMRNLSSLSIDPRTGHMLALSADSHMLLEVDEQGNQVSFMTLLGGMNGLKD”: the “soluble on expression in E. coli” value was “not soluble”.
The entry for “ADRHYSPIDRFLLQADSALRTLLPFSGQPARPSPAIVEPDGELSEEDTRHIAGLMRINHTGEVCAQALYQGQSLTAKLPEVREAMEEAAEEEIDHLAWCEQRIRQLGSRPSVLNPIFYGLSFGVGAAAGLVSDRVSLGFVAATEDQVCKHLDEHLAQIPQEDRKSRAILEQMRIDEEQHSSNALAAGGLRFPAPVKLGMSLLAKV” is “not soluble”; for “MLSEFLHNKSDAMVNQTHEFLLEMTGVSKEFPGVKALDKVNLKVRPHSVHALMGENGAGKSTLLKCLFGIYEKDEGDIIFLGQHVNFSSSKEALESGVSMVHQELNQVKQCSVMDNIWLGRYPTKGFFVDHDKMYRDTKAIFAELDIDIDPKVKVATLSVSQMQMLEIAKAFSYDAKVVIMDEPTSSLTEKEVNHLFTIIKKLKEKGCGVVYISHKMEEIFSICDEITILRDGQWVDTRPLKGLDMDKIISMMVGRELTQRFPEKSNEPKNVILEVKNLTALNQPSIQDISFELRAGEILGVAGLVGSRRTDIVETIFGVRERSAGHILLHGREMKNHDAHEAIRNGFALVTEERRSTGIYSNLDITFNSLVANVDEYKTPYGLLSDKKMKSDTQWVIDSMRVKTPSHQTHIGSLSGGNQQKVIIGRWLLTQPEILMLDEPTRGIDVGAKYEIYQLILELAKKDKGIIIISSEMPELLGITDRIMVMSNGRNAGIVNTKQTSQNEILELASRYL” it is “not soluble”.
The entry for “VAESKLVIGDRSFASRLIMGTGGATNLAVLEQALIASGTELTTVAIRRVDADGGTGLLDLLNRLGITPLPNTAGSRSAAEAVLTAQLAREALNTNWVKLEVIADERTLWPDAVELVRAAEQLVDDGFVVLPYTTDDPVLARRLEDTGCAAVMPLGSPIGTGLGIANPHNIEMIVAGARVPVVLDAGIGTASDAALAMELGCDAVLLASAVTRAADPPAMAAAMAAAVTAGYLARCAGRIPKRFWAQASSPAR” is “soluble”; for “MGSDKIHHHHHHMRRDTFAGRRTQQPACQIHRFARTDKCYRHQKNPAERRHFGLSQCPHRESIVFVYTKMYILLMDVDRVQVRAFRANIAEYLEQALQGQRIVIERHGGPVAALVPLADLYQITRKEKAMGHRIALNNVSGGEGKTFLTFHLAFALADLGFRVAVLDCDPQASLTKRFGLHDEEGAHQSGAETILPVFEVDDDPALPSPVTVEGIDVWPANRQLIDADTRIMTNMMRLGNLGEALDRIQDQYDFILLDTRPNVSPLLTASTAAARLFLVPIGAHKGLENLDELLRLVKLARKQDRSARIAFFIPNKVTSTRMGKNVLQSISAYTEVAPISPPVRQATIGPEAELFRTGITRHAPKSPLAGDIRTLANALVKATEQVEDAQ” it is “not soluble”; for “MAHHHHHHMWRLRSPGPCAGHVARPAAFTACRVVVGSSGATSADAASFRTTSAGAALVVAHRRKSYHFFMNLDDPDATRRRIEEDLDRLASDEKKDTTAYLHSLLNLALSHYQRGDFISARDMADYTHQKALVHNSKSSLIYFTATTCAHCAEALAKEYEAHLQRKDEQSHVSATLTPEPSVVFSARRAIKKLRADAERYRGIAHRVYHRPDMAFMRGSGGGGSGRWRSSARHAEGRDTRHTWADDSSNNGVDEDYIPHMYGPRWQDRRKRPEHAEMKHYYKHQCGTSPSSRGKTQWNVPK” it is “not soluble”.
On to “MENFQPHKQCGYGVIMRLTSKGRYAVTAMLDVALHSQQNPVPLADISERQGISLSYLEQLFSKLRKAGLVASVRGPGGGYRLGMDSYAISIGTVIAAVDESVDATKCNGKGDCQGGTRCLTHTLWRDLSSRITDFLNNITLGELMMDNEVLEVSDRQDLHLAVSQRVSQNNSNTVTIGAAPFGINVRS”, for which the “soluble on expression in E. coli” value is “not soluble”.
Then “MGSDKIHHHHHHMDLASRLLLLLEVSELGSFVKVSELRNVNRSAISKQIGKLEKELGVHLLNRTTRSLSLTAAGSEMVNQAKQLRDLLNNSKRLAENYHSEPRGELKISSSTLFGRQYVQQAVLKFQAQYPDIRIELLLEDRIVDLVGEGFDIGFRIGEPKESNLIAKQIAQNRLLIVAAPSFIEKHGKPTTIPKLESLPAVVYSAQGLLIDKIKYLDNTGNEAFIQLNTAYKVNEVEMLINTAVAGEMLTVTTAQMIENEVLEGKLIPIMTHINLADYGTFYAVYPHRNSPLKTKLFIETLKEVVGDKRPIWETRIPGFDKMYNNKT”, with “not soluble”; and “MMNYNTPKVSIVVPSLNSISYIRECIDSILNQTLKDIEILCIDANSTDGTLEVLKNYEKKDKRLRVIISDKKSYGYQMNLGIKEAKGEYLGIVESDDYIKTNMYERLYEIAKKNDCEVVKGDFYIFAYGKTEYVNVLRNSCEDIYNYKVNWNKDIRIFLGSDGINPIGIYRLDLLRTNQIKLNETPGASYQDNGLWFQIFALAKSIYFINEAFYMLRRDNPNSSVKSKEKVYCACEEYDFIRDFLKKHPDLEKTLAPICALHRFGNYMFTLERIDERYKLDFLKRFSQDFRKILKDKELDENLFGNINMQRINKIIENPVIYYYFSRGARARLQNQLVYRLGKVVVEAKSFNKIIKLPFLMLKICLEHNFEHKVYRSIVQFRPDLKLLPLECYLDYHEALVIKEHLSYKFGKLILLSFKGWYKGKIFILPFMLKKRYKEYKNKMILEHHHHHH”, with “not soluble”; and “MSIYKIPLPLNILEAARERITWTLNTLPRVCVSFSGGKDSGLMLHLTAELARQMGKKICVLFIDWEAQFSCTINYVQSLRELYTDVIEEFYWVALPLTTQNSLSQYQPEWQCWEPDVEWVRQPPQDAITDPDFFCFYQPGMTFEQFVREFAEWFSQKRPAAMMIGIRADESYNRFVAIASLNKQRFADDKPWTTAAPGGHSWYIYPIYDWKVADIWTWYANHQSLCNPLYNLMYQAGVPLRHMRICEPFGPEQRQGLWLYHVIEPDRWAAMCARVSGVKSGGIYAGHDNHFYGHRKILKPEHLDWQEYALLLLNSMPEKTAEHYRNKIAIYLHWYQKKGIEVPQTQQGDIGAKDIPSWRRICKVLLNNDYWCRALSFSPTKSKNYQRYNERIKGKRQEWGILCNND”, with “not soluble”.
For the sequence “MKICAVVVTYNRKDLLVECLEALRRQTGPLDAIYIIDNASTDGTPHLLMEGGYIDDPDGSVKNLPDHHGRSLKIVYVRLNENTGGAGGFYKGVRRAFHDEYDWIWLMDDDVEPEEYTLEKLLKASERIPEDVSAVAPVRFFQGSLFISETKTFNFRNPLKHFTYDFITDDDLKEEYFKISAISFEGLLIKREAIERIGFPDKSLFIIADDTDYAIRLRDYGPIYMVSGARLIKKVAAEPDFNWKGFYHLRNVIYLDRKYGENILVRYLRPLRTLIIVTYQCLKYKPSGFKYLLKAFWEGYTLKRGKTVKPGEFLEHHHHHH”, the “soluble on expression in E. coli” value is “soluble”.
With “AGSDEVNRNECKTVVPLHTWVLISNFKLSYNILRRADGTFERDLGEYLDRRVPANARPLEGVSSFDHIIDQSVGLEVRIYRAAAEGDAEEGAAAVTRPILEFLTDAPAAEPFPVIIFFHGGSFVHSSASSTIYDSLCRRFVKLSKGVVVSVNYRRAPEHRYPCAYDDGWTALKWVMSQPFMRSGGDAQARVFLSGDSSGGNIAHHVAVRAADEGVKVCGNILLNAMFGGTERTESERRLDGKYFVTLQDRDWYWKAYLPEDADRDHPACNPFGPNGRRLGGLPFAKSLIIVSGLDLTCDRQLAYADALREDGHHVKVVQCENATVGFYLLPNTVHYHEVMEEISDFLNANLYYGSHHHHHHHHHH”, the “soluble on expression in E. coli” value was “soluble”.
For “MGSDKIHHHHHHPAAVKKIIETGQTDNRVMHQLDILTNRFGGRVIGSDAYENAAEWMMREYKRWGIDVRLEEAGELPVGFNRGPWFGRLIGGDQAMDLHFVTPSYTSGTKGLQRGHVLIEPRTQEELDRMKHQLKGAWVLISGENVGWPVDRSAKGDSLRAAIKAENIEIEKQNAALMEENWSKGTKHAMKPLREMPGLFYKEMCEAGALGFIQSAPVPLRALYDRALLNDPHTTFDNLPEVCDIKLDEHQYKIIKQMVKERRNFWLEFDIRNHFKLGPVKYHNVVASIKGTKYPDEYVIISGHLDSYDVATGGIDCGTGIGPMMEAARMIALSGAKPKRTILFVAFAGEEFGLLGAKAYVKTHAKELGKIANLFNRDGGPTPPVGISVPQAMYDDFVEVCKPVKEIRADYPFEVKVAKPFKRPTQSGGTDASVFAVEGVPTFGFNTQDIKGYNFSYGEIWHTERDLYTKNIPEYQEHAATVTAVVALGIANLSKQLSREGMHKK”, the “soluble on expression in E. coli” value is “not soluble”.
The entry for “MTDKKTTEKKETETAATFTEELTAVLEEIKEEPVKEKKKGEIVTIVNETDIQIGEREYRIVKNHRDAFDPERLGERFSEVLARYDYIVGDWGYEQLRLRGFFDTSNRRAAPDQRIDTLEDYLYEYCNFGCAYFVIERTGERKEKTTHRRRRHKKNNRSNAFVEEKSAPANKNSKPVIRTRKEENKKTTTPKQPSPKKSGKGFTIRQREELEHHHHHH” is “soluble”; for “MQMAGFGLIAKLRNKIRVKPNNKIQIGKNTRIRYCDIYVNGNNNQLIIHNGANLKGVSIELNGNNCLLEIGENCVIGENCFLSCRESGTKLVIGKECMFSRNVKLMTSDGHDILRDGKRINPAKSIYIGSHVWLADNVTILKGVDIGSGSIIGINSTVTKSIGQYCIAAGNPARKIKDNISWNTTLSY” it is “not soluble”.
Then “MAHHHHHHMKYLTFNRSNKDAIDLCERLEATKIDLANPLLLQYSWVIWEQVSDNKIKQSNNYKDYTRPLAKFNSVQKFWQLWNRLPQPSDLLAQKSMTRLSEDGTLRIIDALMIFRDNIQPMWEDPANAEGGHFEYKFVPRDFPYSQIDEFWNNLVLAIIGCTLKHYNLITGIRLVDKLSTTRHGYVRIEIWYTTVPDESVRNHLRKDLEEHMCNRIDGSHVYPPRGKNFSHSHK”, with “soluble”; and “MSCEIVVYPAQDSTTTNIQDISIKNYFKKYGEISHFEAFNDPNSALPLHVYLIKYASSDGKINDAAKAAFSAVRKHESSGCFIMGFKFEVILNKHSILNNIISKFVEINVKKLQKLQENLKKAKEKEAENHHHHHH”, with “soluble”.
The entry for “MSSRKKVRVLLLKNKTVPIDKYELECRSKAFEPIFVPLIKHTHVIQDFRNVLNTIPNYLNTINYIIITSQRTVESLNEAIIPTLTSEQKAALLSKTVYTVGPATANFIRRSGFINVKGGEDAGNGSILADIIIDDLSTDIKACPPSELLFLVGEIRRDIIPKKLHSKGIKVREVVTYKTEELSDGFKRFIHAMKECDEDEVFSDWVVVFSPQGTKEITQYLGDSNRLPGSHLRVASIGPTTKKYLDDNDVTSDVVSPKPDPKSLLDAIELYQRHK” is “soluble”.
Regarding “MGSDKIHHHHHHMLFSAPPVLAPVVPGKALEFPQDFGAHNDFRIEWWYVTGWLETPTGKPLGFQITFFRTATEIDRDNPSHFAPDQLIIAHVALSDPAIGKLQHDQKIARAGFDLAYARTGNTDVKLDDWIFVRETDGRYRTRIEAEDFTLTFILTPSQPLMLQGENGFSRKGPGAPQASYYYSEPHLQVSGIINRQGEDIPVTGTAWLDREWSSEYLDPNAAGWDWISANLDDGSALMAFQIRGKDDSKIWAYAALRDASGHTRLFTPDQVSFHPIRTWRSARTQAVYPVATRVLTGETEWQITPLMDDQELDSRASAGAVYWEGAVTFTRDGQPAGRGYMELTGYVRPLSM”, the “soluble on expression in E. coli” value is reported as “not soluble”.
Regarding “MGSDKIHHHHHHMLQQYHTKLKGTLALTDSYLTEKALQKEKGLYKFIWVRQGSITVEIDHQEMVLSKDDVISLTHLQHLEFKSIDGEYMTLLFNSNFYCIYGNDHEVSCSGFLFNGSSHLVRFTLNEEERRQLDQITEAMENEFTVSDSLQEEMLRILLKRFIIQCTRIARQRLDITREKESGFEIVRQYYNLVDEHYRTKKQVQDYADMLHKSPKTLSNIFSTCKLPSPLRVIHERVEAEAKRLLLYSNKSAKEIADILGFEDQASFSRFFKNMTGQSAVQFRNTEVGKN”, the “soluble on expression in E. coli” value is “not soluble”.

These data come from the DeepSol protein solubility set.
